Results taken from the supplement of paper PMC10567573.

Experiment: protein stability index of a GFP-peptide fusion (GPS, HEK-293T) (PSI 1-6); higher = more stable
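Further: lentivirally expressed fusions sorted by FACS into six bins by GFP to DsRed ratio, PSI derived from sequencing read proportions per bin multiplied by bin number.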

## LQRASILDMRRDHEEQLQRLKLLK
parent: IOH27821_117, c terminus: a fixed tail appended
  protein stability index: 3.67

## YQRPQDSEDMWGDEDFTFGAYQPT
parent: IOH27821_46, c terminus: a fixed tail appended
  protein stability index: 2.9

## KPYTCSVCGKSFSRTTCLFLHLRT
parent: IOH28719_62, c terminus: a fixed tail appended
  protein stability index: 2.03

## SLGRHKRTHTGEKPYTCSVCGKSF
parent: IOH28719_60, c terminus: a fixed tail appended
  protein stability index: 2.55

## YHSPELTTPPGHGTLDNSKSMKPY [NEUROD6 WT]
parent: IOH27687_36, c terminus: a fixed tail appended
  protein stability index: 2.22

## FGDSPKAEKRQIGDQEGPRPARST
parent: IOH27821_37, c terminus: a fixed tail appended
  protein stability index: 4.98

## PTVDLNQVLNETRSQYEALVETNR
parent: IOH28032_44, c terminus: a fixed tail appended
  protein stability index: 3.1

## TTKCVRQYEGHVNEYAYLPLHVHE
parent: IOH28737_51, c terminus: a fixed tail appended
  protein stability index: 2.65

## ISEYEKSLQFDEKCLSIMLAEWEA [RPAIN WT]
parent: IOH28888_19, c terminus: a fixed tail appended
  protein stability index: 1.85

## DSHILLCLMGLAETPGCATLLPAS
parent: IOH28737_24, c terminus: a fixed tail appended
  protein stability index: 2.86

## VHVIGVEEPSVGASMLFDIREST
parent: IOH28719_96, c terminus: native
  protein stability index: 2.07

## KRSWEEHVTHWMGQPFNSDDRNTA
parent: IOH28890_2, c terminus: a fixed tail appended
  protein stability index: 2.65

## RIHTGERPYMCKECGKAFSQNSSL
parent: IOH28719_47, c terminus: a fixed tail appended
  protein stability index: 2.6

## YPPPPPALPSSAPSGPPPPPPSVL [WASL WT]
parent: IOH28816_58, c terminus: a fixed tail appended
  protein stability index: 4.3

## YQSYFKTIEELQQKILCAKAENAR
parent: IOH28032_25, c terminus: a fixed tail appended
  protein stability index: 1.83

## HVTHWMGQPFNSDDRNTACHHGLV
parent: IOH28890_3, c terminus: a fixed tail appended
  protein stability index: 2.14

## RTHTGEKPYTCSVCGKSFSRTTCL
parent: IOH28719_61, c terminus: a fixed tail appended
  protein stability index: 2.43

## TVHEVDIFRCFCPVFLHSQMLWEL [FAM116A WT]
parent: IOH27644_45, c terminus: a fixed tail appended
  protein stability index: 3

## KISGGPRISYPLLHEWALREGEE [MAGEA6 WT]
parent: IOH28024_53, c terminus: native
  protein stability index: 2.93

## HAPTIHFNYRYFEVEEADGNKQWW [CPOX WT]
parent: IOH27839_43, c terminus: a fixed tail appended
  protein stability index: 2.33

## TLARMSRRTRGPVERAAAAAAAAA [C6orf223 WT]
parent: IOH28619_19, c terminus: a fixed tail appended
  protein stability index: 2.35

## QLQCSPAELQAELLHSQARLAELE
parent: IOH27821_96, c terminus: a fixed tail appended
  protein stability index: 3.22

## PGIDRPGMLCSFRIPGAWSCAWSL
parent: IOH28737_29, c terminus: a fixed tail appended
  protein stability index: 2.84

## PMYFFLGNLSVLDVGCISVTVPSM [OR3A1 WT]
parent: IOH28412_11, c terminus: a fixed tail appended
  protein stability index: 2.98

## FHCIETLVTTGANVNETDDWGRTA [ANKRD44 WT]
parent: IOH28621_76, c terminus: a fixed tail appended
  protein stability index: 1.99

## AIQGISEKEKAEIEAKEACDWLRA
parent: IOH28890_74, c terminus: a fixed tail appended
  protein stability index: 4.41

## FVKALDDLHKMNHVTPPNVSLGAT [JUNB WT]
parent: IOH27814_24, c terminus: a fixed tail appended
  protein stability index: 1.94
